Measurements published in the supplement of paper PMC12042874.
± gives the uncertainty stated by the source.

Assay: amyloid nucleation score (Sup35N fusion, yeast selection) (log enrichment); library NNK3; higher = more nucleation; inactive = no reads after selection
Method in brief: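 Yeast lacking psi expressed peptides of 20 random codons fused to Sup35N, received 100 μM copper sulfate for 24 hours, and were then grown for 7 days at 30°C on medium lacking adenine and uracil. Illumina sequencing of input and output plasmid inserts provided the reads. Nucleation scores are DiMSum log enrichments of output over input, centred on the mode of non-aggregating sequences. Any sequence with under 100 input reads was excluded.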

Amyloid nucleation score, 1.06 ± 0.14:
VFSVHVWQCSNLFQRMLCNF

Amyloid nucleation score, 0.563 ± 0.33:
VSYVCDPLRKIVGTLVRKQV

Amyloid nucleation score, 1.02 ± 0.19:
VLTLLMKVEHTGVSHSVGRV

Amyloid nucleation score, 0.762 ± 0.15:
VSGVECSCD

Amyloid nucleation score, -0.223 ± 0.75:
VFFLNIAIIRVECSYPLVRK

Amyloid nucleation score, -0.611 ± 0.98:
VMIDRWRNASNWIMFISHYR

Amyloid nucleation score, 0.107 ± 0.35:
VLTYTFRPSVSCSNKSKGSA

Amyloid nucleation score, 2.03 ± 0.083:
VINCIDMRLVYMLGETFFNY

Amyloid nucleation score, -0.387 ± 1.5:
VLWPADFGCPARVQESGSSQ

Amyloid nucleation score, 0.701 ± 0.13:
VPPFTLTSVVYLSFCVCGGD

Amyloid nucleation score, -0.835 ± 0.96:
VKVLYSIAMGIGHGSIGKVC

Amyloid nucleation score, 0.546 ± 0.42:
VIVCNECLG

Amyloid nucleation score, 1.64 ± 0.06:
VTIITMEIWL

Amyloid nucleation score, 0.817 ± 0.21:
VTCSYQMVLWAAFVVKCPAL

Amyloid nucleation score, -0.441 ± 0.8:
VSRCRVHKFTGYC

Amyloid nucleation score, 0.776 ± 0.14:
VNCWLLAVFTASSATLHNTR

Amyloid nucleation score, 3.08 ± 0.065:
VTLLPVSVCINAFNLILGPF

Amyloid nucleation score, 0.199 ± 0.62:
VGGGVPVTLGFSLRRSWSVV

Amyloid nucleation score, 1.11 ± 0.13:
VKNTGLSSNHLEH

Amyloid nucleation score, 1.72 ± 0.11:
VFFFMNQSRRDRIE

Amyloid nucleation score, -0.572 ± 0.84:
VGSNTVM

Amyloid nucleation score, -0.153 ± 1.1:
VLRRSYYRVSRPELPIWSN

Amyloid nucleation score, 1.43 ± 0.09:
VSLFYKCSYNGVYNNRVLAP

Amyloid nucleation score, 2.53 ± 0.052:
VHAMWKSICNTSCML

Amyloid nucleation score, 2.19 ± 0.092:
VNLITCKQVSFRCQVSGILC

Amyloid nucleation score, -0.429 ± 0.91:
VRKKCLDPDGFLSRLGPAFD

Amyloid nucleation score, 0.804 ± 0.17:
VGVYITMVYVSIKENRVEGN

Amyloid nucleation score, 0.717 ± 0.15:
VFVMETTKLFSNDIGVRGGW

Amyloid nucleation score, 2.82 ± 0.052:
VRSTTQHVHLICCNEYFRH

Amyloid nucleation score, 1.13 ± 0.11:
VNITLLRCEGSGMFGRSSKL

Amyloid nucleation score, 0.239 ± 0.42:
VIGWKINGGYPERTS

Amyloid nucleation score, -0.325 ± 1.2:
VMTAGWYLFLLSGSEGYVVS

Amyloid nucleation score, 2.65 ± 0.051:
VQNNFGVSNAGNGLCWGCIC

Amyloid nucleation score, -0.089 ± 0.98:
VFLHVWCGRVGKL

Amyloid nucleation score, 0.005 ± 0.98:
VFFSWPMARKCEGSEDHPNF

Amyloid nucleation score, 2.93 ± 0.068:
VSIFCCQPSSVIAVDISDHS

Amyloid nucleation score, 0.724 ± 0.27:
VMCSWLTGCYIQKNRFQGSL

Amyloid nucleation score, -0.36 ± 1.1:
VKKLSKVHDSCGMREVLGCH

Amyloid nucleation score, -0.57 ± 1.8:
VRAGSLYHCVRNPISRGLAV

Amyloid nucleation score, 1.45 ± 0.094:
VSNMGSMIVVVSVRCYM

Amyloid nucleation score, inactive:
VFFYAASD, VFGFMCNYSFVATSRLCVIG, VFMGQDLWMSLGAEDEDLAW, VFNMLGFSDY, VFTVF, VFVLCSSLYEGFTYYRWISF, VFVNSYS, VFVPTKYHYMYVLGQWDIFV, VFVVQNGMPTRFECVLGVQR, VFYIVMMLVRAPIFFNGVPT, VFYSKKDRMGGQFS, VGHPFNCSLDCF, VGMISCKTILEFGGMSSFVM, VGNFYVSNVAFLWVK, VGPLSDSVFMYGT, VGRVRQVAQLDMGPDMYDRV, VGSIARLFVQTAMPVPKLAR, VGSITVRLWYILECGEEVDC, VGTMKNLERVRVCYD, VGVFSIMV, VHFLSTVGMKLTALYKGVVM, VHLQGITSITVGIWPHKHLD, VHSGQLVTMGMYKLLLSSLC, VICGYLYVYVYHGFVGSLLG, VIKALRMVCMGHWSYSVTLS, VINRSLCPERFGKGAL, VIRPGQYVIWFSRVILSFLF, VIRSNYWHTLNWLQQNKSRG, VKISMNYKTQLTWLLFAWIL, VKLMASEHLSCIGRI, VKREWSAI, VKSISNNSQLSSELN, VKSRNENIDPGCWRLELAPF, VKVCEVSMQNRIFTGHAHFS, VKYDDSWYDDWHIYNVYRCK, VKYSLALVSGNRARGYRRCG, VLAMCVYSACMWFGNNAMLH, VLGCVGLCYHRYVNALGGAE, VLGILVDFDLIKV, VLGWGSIVMNDEGELSVGMV, VLIRWRYEAYLSHCGSPCAS, VLKLRVKVNQVVVDYVLESG, VLLGAVYKQNLANQYYSNLY, VLLKRL, VLLVCFLRTRKCSRLLAC, VLPNYPSFNSSYICWYFWYL, VLQHRLVFDFYKFCMSTMVH, VLQYECHVDMCRGRWSLGAI, VLSGNFNTSDFLLMFLITSQ, VLVNPILLPMPLQ, VLVSVGLVLWACCLRLQ, VLWAFNLMLVDWRIRFQNWA, VLYGRSGVVEANRC, VLYVRNLMLYGNLCKALLAF, VMAELVSVKVAQVIVR, VMFLEDSVFV, VMFMIAGNC, VMFRCN, VMKPNIEFGN, VMLNNCRGYLANCDSCSW, VMRIVATQRAGWTGTREPGM, VMSFVFNTSLWSMYIRIGSP, VMSLTR, VMSSCKIRCNDTRTPAAHIC, VNCLLSRWCGRHA, VNDVLGNEPFRVVGEEEIPG, VNFLSGWEPVIVKYHRSA, VNFYADRASVHVHSVFHTQD, VNGSV, VNSDEPMHWRSSGNYRARIV, VPCTWDLFYIGRSMWWFLTM, VPISHLFSLVLVRPRMTSRY, VPKKEKWRFDIVL, VPPFPRMEAGGYVHVVAFSV, VQCRDVLGNDVFCVYHLGVE, VQGLGGNWW, VQGRYLRRVCMRMVPLRRTD, VQISVNSVNLLKRWFIRAGT, VQVLYVICLSSSMLYRLVVR, VRFYVLSPKDFWAFLKILFR, VRHGCG, VRIRGWFAGHGNFWFSL, VRLFRVLWRIIPDGVSMKSV, VRLTTWLAYNLMVSSDTMFC, VRNNVCRPVCYGWNGGYITV, VRRSMATLFWCWDYTNLDCI, VRSCAKLPSVHKYLAQARRL, VRSFFYRSLYQCISRNPCCA, VRSNVKDRFT, VRTDYWVGYVIFYHIVSRGL, VSDDLMDGSKNVLFARVEGD, VSFCGTPFFYHWRHSNWLFK, VSFFDQTKASGYSLRLMLFM, VSGQVVFGLWGYLWLYEEVF, VSIRAVRYKVLGLFWSSTHV, VSLMP, VSPVGSSRWWHDLHVSLETS, VSRKMRLVWTRLVER, VSRTSVSRRFYCIARMCSPV, VSSMYVVIHGV, VSSSVVYTFVMSSLLGVDNE, VSTYGWAVRWGVFWGSMTYT, VSVLIHGKRSFGMWCSMHAY, VSVLRWLKRLDLHCGGV, VSVVNYKVVHSSAEKVFSFS, VSYISDQGC, VTAMSMNVAQCPAYPR, VTCPNFQKIYRQGCYGGFDT, VTCVVVVGVHVRRHGFQEYV, VTFTHKEHGRPNTRSFTKYL, VTGHLGKG, VTLCVVEPDCWRIGG, VTPSTGRSIVVTPGTYIARV, VTRETADDATVSQFWLNPSE

Amyloid nucleation score, 1.36 ± 0.12:
VITMGMSLSSVSGLRDYLQE

Amyloid nucleation score, 1.57 ± 0.12:
VQRGSTALVFDVSTSIFMNI

Amyloid nucleation score, 2.7 ± 0.081:
VNTFNFWCI

Amyloid nucleation score, 2.6 ± 0.072:
VSTSVDYFYGGPWTLVFGCL
